Consider four substances from patent publication US20180282425A1.

Where two headings read alike, the source gives them in different places.

Experiment [1] deals with C5a receptor C5aR (CD88) on human blood neutrophils (human) (UniProt P21730). Kind of experiment: cell-based or functional assay.
Experiment [2] shares this target. Kind of experiment: cell-based or functional assay. The source holds these as a separate data set.

Sequence of C5a receptor C5aR (CD88) on human blood neutrophils (human) (P21730 whole entry): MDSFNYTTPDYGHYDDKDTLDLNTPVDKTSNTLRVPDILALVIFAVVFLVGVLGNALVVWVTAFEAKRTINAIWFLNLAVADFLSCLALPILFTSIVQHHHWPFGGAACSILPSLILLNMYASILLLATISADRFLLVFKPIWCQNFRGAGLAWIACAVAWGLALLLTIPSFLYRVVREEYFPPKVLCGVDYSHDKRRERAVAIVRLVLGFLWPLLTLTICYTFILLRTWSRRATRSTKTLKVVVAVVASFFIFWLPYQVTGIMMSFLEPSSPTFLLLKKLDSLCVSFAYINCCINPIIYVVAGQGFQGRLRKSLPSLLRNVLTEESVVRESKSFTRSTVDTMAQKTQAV

For the substance PMX-53 (peptide), in experiment [1], the Blocking activity (%) on CD11b upregulation; Pat. 088|PMX 53 (50 nM) stood at 55.5%, the Blocking activity (%) on CD11b upregulation; Pat. 092|PMX 53 (50 nM) came to 56.7%, the Blocking activity (%) on CD11b upregulation; huPP|rhC5a|PMX 53 (50 nM) worked out at 50.3% and the CD11b (mean MFI); Pat. 088|PMX 53 (50 nM) was determined as 4730 MFI. Further, in experiment [1], the CD11b (mean MFI); Pat. 092|PMX 53 (50 nM) worked out at 4660 MFI and the CD11b (mean MFI); huPP|rhC5a|PMX 53 (50 nM) was 4240 MFI. In experiment [2], the Blocking activity (%) on CD11b upregulation; Pat. 088|PMX 53 (20 µM) stood at 104%, the Blocking activity (%) on CD11b upregulation; Pat. 092|PMX 53 (20 µM) is 109%, the Blocking activity (%) on CD11b upregulation; huPP|rhC5a|PMX 53 (20 µM) came to 108% and the CD11b (mean MFI); Pat. 088|PMX 53 (20 µM) was found to be 2030 MFI. Further, in experiment [2], the CD11b (mean MFI); Pat. 092|PMX 53 (20 µM) came to 1910 MFI and the CD11b (mean MFI); huPP|rhC5a|PMX 53 (20 µM) worked out at 1850 MFI.

For anti-C5aR (CD88) antibody Clone 7H110, in experiment [1], the Blocking activity (%) on CD11b upregulation; Pat. 088|Clone 7H110 (50 nM) turned out to be 75.7%, the Blocking activity (%) on CD11b upregulation; Pat. 092|Clone 7H110 (50 nM) came out at 78.7%, the Blocking activity (%) on CD11b upregulation; huPP|rhC5a|Clone 7H110 (50 nM) was 70.7% and the CD11b (mean MFI); Pat. 088|Clone 7H110 (50 nM) was determined as 3560 MFI. In experiment [1], this substance displayed a CD11b (mean MFI); Pat. 092|Clone 7H110 (50 nM) of 3390 MFI and a CD11b (mean MFI); huPP|rhC5a|Clone 7H110 (50 nM) of 3380 MFI.

In experiment [1], anti-C5aR (CD88) antibody Clone S5/1 registered a Blocking activity (%) on CD11b upregulation; Pat. 088|Clone S5/1 (50 nM) of 72.7%, a Blocking activity (%) on CD11b upregulation; Pat. 092|Clone S5/1 (50 nM) of 75.9%, a Blocking activity (%) on CD11b upregulation; huPP|rhC5a|Clone S5/1 (50 nM) of 73% and a CD11b (mean MFI); Pat. 088|Clone S5/1 (50 nM) of 3740 MFI. In experiment [1], this substance registered a CD11b (mean MFI); Pat. 092|Clone S5/1 (50 nM) of 3560 MFI and a CD11b (mean MFI); huPP|rhC5a|Clone S5/1 (50 nM) of 3290 MFI.

As to “recombinant human C5a (from UniProt P01031 678-751) (ligand)”, the figures for the CD11b (mean MFI) on blood neutrophils; huPP|rhC5a (20 nM), no blocker in experiment [1] and in experiment [2] were 6330 MFI and 8330 MFI, respectively.
